Results on 17 molecules are retold here after patent publication US20180134794A1 (Regeneron, published 2018).

B1: H4H13325P2 (antibody, human IgG4, V domains shown)
VH: EVQLLESGGGWVQPGGSLRLSCAASGFAFSNYAMNWVRQTPGKGLEWVSVISSSGGNTYYADSVKGRFAISRDNSRDTLHLQMNRLRVEDTAVYYCAKEIRPYYDLSYYYGMDVWGQGTTVTVSS
VL: not shown
B2: H4H13313P2 (antibody, human IgG4, V domains shown)
VH: QVQLVESGGGVVQPGRSLRLSCSASGFSFSHFGMHWVRQVPGGGLEWVTSIWFDGSNRYYADSLKGRFTISRDNSKNTLYLEMNSLRAEDTAVYYCVREGILGTTNPYDVFDVWGQGTMVTVSS
VL: not shown
B3: H1H13316P2 (antibody, V domains shown)
VH: EVQLVESGGGLVQPGGSLRLSCAASGFTFRSYVMSWFRQAPGKGLEWVSGMSGSGGSTSYADSVKGRFTISRDNSKNTLYLLMNSLRTEDTAVYYCAKENGANWNYGYYGMDVWGQGTTVTVSS
VL: not shown
B4: H4H13316P2 (antibody, human IgG4, V domains shown)
VH: EVQLVESGGGLVQPGGSLRLSCAASGFTFRSYVMSWFRQAPGKGLEWVSGMSGSGGSTSYADSVKGRFTISRDNSKNTLYLLMNSLRTEDTAVYYCAKENGANWNYGYYGMDVWGQGTTVTVSS
VL: not shown
B5: H4H14638D (bispecific antibody, human IgG4, V domains shown)
VH 1: QVQLVESGGGVVQPGRSLRLSCAASGFTFSNFGMHWVRQAPGKGLEWVAGIWFDGSNKNYIDSVKGRFTISRDNSKNTLYLQMNSLRAEDTAVYYCAREGYDSGTDYIPYDIFDIWGQGTMVTVSS
VH 2: EVQLVESGGGLVQPGGSLRLSCAASGFIVTTNYMTWLRQAPGKGLEWVSLIYSSGHTYYADSVKGRFTISRHNSKNTLYLQMDSLRAEDTAVYYCASAFAADVFDIWGQGTMVTVSS
VL: not shown
B6: H4H14641D (bispecific antibody, human IgG4, V domains shown)
VH 1: QVQLVESGGGVVQPGRSLRLSCSASGFSFSHFGMHWVRQVPGGGLEWVTSIWFDGSNRYYADSLKGRFTISRDNSKNTLYLEMNSLRAEDTAVYYCVREGILGTTNPYDVFDVWGQGTMVTVSS
VH 2: EVQLVESGGGLVQPGGSLRLSCAASGFIVTTNYMTWLRQAPGKGLEWVSLIYSSGHTYYADSVKGRFTISRHNSKNTLYLQMDSLRAEDTAVYYCASAFAADVFDIWGQGTMVTVSS
VL: not shown
B7: H4H16449D (bispecific antibody, human IgG4, V domains shown)
VH 1: QVQLVESGGGVVQPGRSLRLSCAASGFTFSSFAMHWVRQAPGKGLEWVAVIWYDGSNDYYAASVKGRFTISRDNSKNTLYLEMNRLRAEDTAVYHCARDNWNYWGGMDVWGQGTTVTVSS
VH 2: EVQLVESGGGLVQPGGSLRLSCAASGFIVTTNYMTWLRQAPGKGLEWVSLIYSSGHTYYADSVKGRFTISRHNSKNTLYLQMDSLRAEDTAVYYCASAFAADVFDIWGQGTMVTVSS
VL: not shown
B8: H4H14637D (bispecific antibody, human IgG4, V domains shown)
VH 1: QVQLVESGGGVVQPGTSLRLSCVASGFTFRNFGMHWVRQAPGKGLEWVANIWFDGSNENYVESIQGRFTISRDNSKNTLNLQMNSLRAEDSAVYYCVREGILGTTNPYDAFDVWGQGTMVTVSS
VH 2: EVQLVESGGGLVQPGGSLRLSCAASGFIVTTNYMTWLRQAPGKGLEWVSLIYSSGHTYYADSVKGRFTISRHNSKNTLYLQMDSLRAEDTAVYYCASAFAADVFDIWGQGTMVTVSS
VL: not shown
B9: H4H13312P2 (antibody, human IgG4, V domains shown)
VH: EVQLVESGGGLVQPGGSLRLSCAASGFIVTTNYMTWLRQAPGKGLEWVSLIYSSGHTYYADSVKGRFTISRHNSKNTLYLQMDSLRAEDTAVYYCASAFAADVFDIWGQGTMVTVSS
VL: not shown
B10: H4H16447D (bispecific antibody, human IgG4, V domains shown)
VH 1: QVQLVESGGGVVQPGRSLRLSCAASGFTFSSYAMHWVRQAPGRGLEWVAVIWHDGDVEYYVDSVKDRFTISRDNSKSTLYLQMNSLRAEDTALYYCAREAWDLLRPFDYWGQGTLVTVSS
VH 2: EVQLVESGGGLVQPGGSLRLSCAASGFIVTTNYMTWLRQAPGKGLEWVSLIYSSGHTYYADSVKGRFTISRHNSKNTLYLQMDSLRAEDTAVYYCASAFAADVFDIWGQGTMVTVSS
VL: not shown
B11: H4H14636D (bispecific antibody, human IgG4, V domains shown)
VH 1: EVQLVESGGGLVQPGGSLRLSCAASGFIFSNYEMNWVRQAPGKGLEWISYITSSGNMKYYADSVKGRFTISRDNDKNSLYLQMSSLRVEDTAVYYCVRGGRFLEWLTYYVMVVWGQGTTVTVSS
VH 2: EVQLVESGGGLVQPGGSLRLSCAASGFIVTTNYMTWLRQAPGKGLEWVSLIYSSGHTYYADSVKGRFTISRHNSKNTLYLQMDSLRAEDTAVYYCASAFAADVFDIWGQGTMVTVSS
VL: not shown
B12: H4H16445D (bispecific antibody, human IgG4, V domains shown)
VH 1: QVQLVESGGGVVQPGGSLRLSCAASGFTFSGYGMHWVRQAPGKGLEWMAVIWYDGSNDYYPDSVKGRFTISRDNSKNTLYLQMNSLRVEDTAVYYCARDAWDLLRSFDYWGQGTLVTVSS
VH 2: EVQLVESGGGLVQPGGSLRLSCAASGFIVTTNYMTWLRQAPGKGLEWVSLIYSSGHTYYADSVKGRFTISRHNSKNTLYLQMDSLRAEDTAVYYCASAFAADVFDIWGQGTMVTVSS
VL: not shown
B13: H4H13302P2 (antibody, human IgG4, V domains shown)
VH: QVQLVESGGGVVQPGRSLRLSCAASGFTFSNFGMHWVRQAPGKGLEWVAGIWFDGSNKNYIDSVKGRFTISRDNSKNTLYLQMNSLRAEDTAVYYCAREGYDSGTDYIPYDIFDIWGQGTMVTVSS
VL: not shown
B14: H4H16446D (bispecific antibody, human IgG4, V domains shown)
VH 1: QVQLVESGGGVVQPGRSLRLSCAVSGFTFSSYGMHWVRQAPGKGLEWVANIWYDGTNDYYPYSVKGRFTISRDNSQNTLYLQMNSLRAEDTAVYYCAREDFINYRSFDYWGQGTLVTVSS
VH 2: EVQLVESGGGLVQPGGSLRLSCAASGFIVTTNYMTWLRQAPGKGLEWVSLIYSSGHTYYADSVKGRFTISRHNSKNTLYLQMDSLRAEDTAVYYCASAFAADVFDIWGQGTMVTVSS
VL: not shown
B15: H4H16448D (bispecific antibody, human IgG4, V domains shown)
VH 1: QVQLVESGGGVVQPGRSLRLSCVASGFSFSNFGMHWVRQAPGKGLEWVAIIWYDGSNKYYSDSVKGRFTISRDNSKNTLYLQMNSLRVDDTAVYYCARFDRWKFDAFDIWGQGTMVTVSS
VH 2: EVQLVESGGGLVQPGGSLRLSCAASGFIVTTNYMTWLRQAPGKGLEWVSLIYSSGHTYYADSVKGRFTISRHNSKNTLYLQMDSLRAEDTAVYYCASAFAADVFDIWGQGTMVTVSS
VL: not shown
B16: H1H13301P2 (antibody, V domains shown)
VH: QVQLVESGGGVVQPGTSLRLSCVASGFTFRNFGMHWVRQAPGKGLEWVANIWFDGSNENYVESIQGRFTISRDNSKNTLNLQMNSLRAEDSAVYYCVREGILGTTNPYDAFDVWGQGTMVTVSS
VL: not shown
B17: H4H13301P2 (antibody, human IgG4, V domains shown)
VH: QVQLVESGGGVVQPGTSLRLSCVASGFTFRNFGMHWVRQAPGKGLEWVANIWFDGSNENYVESIQGRFTISRDNSKNTLNLQMNSLRAEDSAVYYCVREGILGTTNPYDAFDVWGQGTMVTVSS
VL: not shown
For % Inhibition (HEK293/SRE-Luc Blocking Activity, 1 h mAb pre-bind) in this document: test concentration or dose not given here.

human MET (c-Met, hepatocyte growth factor receptor), endogenous on human cell lines, sequence (P08581 25-1390 limits assumed, form in doubt): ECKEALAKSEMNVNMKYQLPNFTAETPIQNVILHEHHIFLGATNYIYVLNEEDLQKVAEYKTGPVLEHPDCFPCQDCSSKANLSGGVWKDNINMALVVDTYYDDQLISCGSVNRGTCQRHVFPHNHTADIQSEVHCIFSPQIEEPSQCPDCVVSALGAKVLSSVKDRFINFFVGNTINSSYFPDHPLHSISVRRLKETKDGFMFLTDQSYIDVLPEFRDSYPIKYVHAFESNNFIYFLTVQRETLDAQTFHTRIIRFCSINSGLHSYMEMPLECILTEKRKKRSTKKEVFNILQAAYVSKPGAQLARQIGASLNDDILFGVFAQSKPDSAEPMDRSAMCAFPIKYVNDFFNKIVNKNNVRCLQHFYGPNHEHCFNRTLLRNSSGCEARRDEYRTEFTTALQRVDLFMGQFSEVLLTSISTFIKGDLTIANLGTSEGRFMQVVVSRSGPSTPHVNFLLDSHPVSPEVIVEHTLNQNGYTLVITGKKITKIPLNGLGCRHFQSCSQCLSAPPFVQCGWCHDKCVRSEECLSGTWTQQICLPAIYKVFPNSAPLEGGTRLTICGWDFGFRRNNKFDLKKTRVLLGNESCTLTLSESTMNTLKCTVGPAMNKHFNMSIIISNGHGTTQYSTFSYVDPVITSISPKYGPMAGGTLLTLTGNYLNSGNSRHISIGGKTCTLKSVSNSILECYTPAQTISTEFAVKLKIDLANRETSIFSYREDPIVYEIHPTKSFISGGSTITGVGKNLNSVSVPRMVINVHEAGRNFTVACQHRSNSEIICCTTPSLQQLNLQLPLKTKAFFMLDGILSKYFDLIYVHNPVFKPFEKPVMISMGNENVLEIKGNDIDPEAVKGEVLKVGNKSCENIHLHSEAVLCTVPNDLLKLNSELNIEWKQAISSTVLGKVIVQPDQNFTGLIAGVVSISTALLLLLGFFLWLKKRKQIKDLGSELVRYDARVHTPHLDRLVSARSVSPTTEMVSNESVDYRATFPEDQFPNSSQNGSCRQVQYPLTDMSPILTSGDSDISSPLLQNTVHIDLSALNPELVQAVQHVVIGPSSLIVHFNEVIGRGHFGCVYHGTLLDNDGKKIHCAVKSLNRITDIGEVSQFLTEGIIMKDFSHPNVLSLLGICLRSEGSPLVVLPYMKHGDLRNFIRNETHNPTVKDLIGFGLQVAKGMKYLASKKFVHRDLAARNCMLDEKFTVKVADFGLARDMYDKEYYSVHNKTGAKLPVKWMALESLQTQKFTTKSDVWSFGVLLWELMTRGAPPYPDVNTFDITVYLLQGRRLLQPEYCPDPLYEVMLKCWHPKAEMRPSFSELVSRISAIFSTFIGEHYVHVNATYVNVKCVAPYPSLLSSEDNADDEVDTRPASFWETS

This test has as its target human MET (c-Met, hepatocyte growth factor receptor), endogenous on human cell lines (human, UniProt P08581 25-1390). The experiment in a line: cell-based or functional assay.
As for B1, the “% Inhibition (HEK293/SRE-Luc Blocking Activity, 1 h mAb pre-bind)” value stood at 69%; the “EC50 (Ligand (HGF)-Independent HEK293/SRE-Luc Activation)” value was 0.19 nM; the “Fold Response (Ligand (HGF)-Independent HEK293/SRE-Luc Activation)” value amounted to 4.3 fold; the “IC50 (HEK293/SRE-Luc Blocking Activity, 1 h mAb pre-bind)” value stood at 0.013 nM.
Consider B2, for which the “% Inhibition (HEK293/SRE-Luc Blocking Activity, 1 h mAb pre-bind)” value was found to be 47%; the “Fold Response (Ligand (HGF)-Independent HEK293/SRE-Luc Activation)” value stood at 1.2 fold; the “IC50 (HEK293/SRE-Luc Blocking Activity, 1 h mAb pre-bind)” value amounted to 2.3 nM.
As for B3, the “% Inhibition (HEK293/SRE-Luc Blocking Activity, 1 h mAb pre-bind)” value came out at 86%; the “Fold Response (Ligand (HGF)-Independent HEK293/SRE-Luc Activation)” value is 1.7 fold; the “IC50 (HEK293/SRE-Luc Blocking Activity, 1 h mAb pre-bind)” value was found to be 0.04 nM.
As to B4, the “% Inhibition (HEK293/SRE-Luc Blocking Activity, 1 h mAb pre-bind)” value came out at 74%; the “EC50 (Ligand (HGF)-Independent HEK293/SRE-Luc Activation)” value worked out at 0.047 nM; the “Fold Response (Ligand (HGF)-Independent HEK293/SRE-Luc Activation)” value was 2.3 fold; the “IC50 (HEK293/SRE-Luc Blocking Activity, 1 h mAb pre-bind)” value stood at 0.0078 nM.
For B5, in that order: 79%, 5.9 nM, 2.6 fold and 1.1 nM.
For B6 the same measures were 75%, 84 nM, 4.4 fold and 2.7 nM.
For the molecule B7, the “% Inhibition (HEK293/SRE-Luc Blocking Activity, 1 h mAb pre-bind)” value turned out to be 85%; the “EC50 (Ligand (HGF)-Independent HEK293/SRE-Luc Activation)” value is 0.42 nM; the “Fold Response (Ligand (HGF)-Independent HEK293/SRE-Luc Activation)” value worked out at 4.2 fold; the “IC50 (HEK293/SRE-Luc Blocking Activity, 1 h mAb pre-bind)” value amounted to 0.32 nM.
For B8, the “% Inhibition (HEK293/SRE-Luc Blocking Activity, 1 h mAb pre-bind)” value stood at 73%; the “EC50 (Ligand (HGF)-Independent HEK293/SRE-Luc Activation)” value was 4.1 nM; the “Fold Response (Ligand (HGF)-Independent HEK293/SRE-Luc Activation)” value is 2.1 fold.
On to B9, for which the “% Inhibition (HEK293/SRE-Luc Blocking Activity, 1 h mAb pre-bind)” value is 48% and the “EC50 (Ligand (HGF)-Independent HEK293/SRE-Luc Activation)” value was 0.12 nM.
For B10 the same measures were 76% and 1.4 nM.
B11: the “% Inhibition (HEK293/SRE-Luc Blocking Activity, 1 h mAb pre-bind)” value came to 74%; the “EC50 (Ligand (HGF)-Independent HEK293/SRE-Luc Activation)” value worked out at 0.28 nM; the “Fold Response (Ligand (HGF)-Independent HEK293/SRE-Luc Activation)” value was found to be 2.8 fold.
Take B12: the “% Inhibition (HEK293/SRE-Luc Blocking Activity, 1 h mAb pre-bind)” value was 81%; the “EC50 (Ligand (HGF)-Independent HEK293/SRE-Luc Activation)” value is 1 nM; the “Fold Response (Ligand (HGF)-Independent HEK293/SRE-Luc Activation)” value is 4.3 fold; the “IC50 (HEK293/SRE-Luc Blocking Activity, 1 h mAb pre-bind)” value stood at 0.52 nM.
As to B13, the “% Inhibition (HEK293/SRE-Luc Blocking Activity, 1 h mAb pre-bind)” value came out at 45%; the “Fold Response (Ligand (HGF)-Independent HEK293/SRE-Luc Activation)” value amounted to 1.8 fold; the “IC50 (HEK293/SRE-Luc Blocking Activity, 1 h mAb pre-bind)” value worked out at 1.6 nM.
On to B14, for which the “% Inhibition (HEK293/SRE-Luc Blocking Activity, 1 h mAb pre-bind)” value came out at 83%; the “EC50 (Ligand (HGF)-Independent HEK293/SRE-Luc Activation)” value was found to be 1.4 nM; the “Fold Response (Ligand (HGF)-Independent HEK293/SRE-Luc Activation)” value was determined as 4 fold; the “IC50 (HEK293/SRE-Luc Blocking Activity, 1 h mAb pre-bind)” value amounted to 1 nM.
Regarding B15, the “% Inhibition (HEK293/SRE-Luc Blocking Activity, 1 h mAb pre-bind)” value is 87%; the “EC50 (Ligand (HGF)-Independent HEK293/SRE-Luc Activation)” value was found to be 0.91 nM; the “Fold Response (Ligand (HGF)-Independent HEK293/SRE-Luc Activation)” value worked out at 4.3 fold; the “IC50 (HEK293/SRE-Luc Blocking Activity, 1 h mAb pre-bind)” value amounted to 0.62 nM.
Regarding B16, the “% Inhibition (HEK293/SRE-Luc Blocking Activity, 1 h mAb pre-bind)” value came to 42%; the “Fold Response (Ligand (HGF)-Independent HEK293/SRE-Luc Activation)” value worked out at 1.4 fold; the “IC50 (HEK293/SRE-Luc Blocking Activity, 1 h mAb pre-bind)” value was 3.3 nM.
For B17, in that order: 40%, 1.6 fold and 1.5 nM.
